These results are taken from FireProtDB.

For this data set the following is noted: whole UniProt chain shown.
Where [1] appears, read: Homo sapiens, pH 7.5, 0 °C, GdnHCl, CD, Na2HPO4 5 mM, transition: 2, reversible: No.
[2] abbreviates: Homo sapiens, pH 8, Thermal, CD, Tris-HCl 10 mM.
Where [3] appears, read: Homo sapiens, pH 8, 25 °C, GdnHCl, CD, Tris-Hcl, transition: 2.
Setting [4] is: Homo sapiens, pH 8, 25 °C, GdnHCl, fluorescence, Tris-Hcl, transition: 2.
Setting [5] is: Mus musculus, pH 4, 25 °C, GdnHCl, CD, Sodium acetate 10 mM, reversible: yes.
The mark [6] stands for this setting: Mus musculus, pH 4, 25 °C, Urea, CD, Sodium acetate 10 mM, reversible: yes.
Where [7] appears, read: Mus musculus, pH 7.4, 25 °C, Urea, CD, Tris-HCl 10 mM, reversible: yes.
Where [8] appears, read: Homo sapiens, pH 7.8, Thermal, DSC, Potassium phosphate 2 mM, reversible: yes.
[9] abbreviates: Homo sapiens, pH 8.1, Thermal, DSC, Tris-HCl 20 mM.
[10] abbreviates: Homo sapiens, pH 7.5, 25 °C, Urea, CD, HEPES 20 mM, NaCl 100 mM, reversible: no.
[11] abbreviates: Homo sapiens, pH 7.5, 25 °C, Urea, CD, Sodium phosphate 15 mM, NaCl 100 mM, reversible: yes.
The mark [12] stands for this setting: Momordica charantia, pH 7.5, 25 °C, GdnHCl, fluorescence, Tris-HCl 10 mM, NaCl 200 mM.

B1: Apolipoprotein C-I wild type, P02654 (protein)
chain: MRLFLSLPVLVVVLSIVLEGPAPAQGTPDVSSALDKLKEFGNTLEDKARELISRIKQSELSAKMREWFSETFQKVKEKLKIDS
What is called Tm is the temperature at which the thermal transition is half complete. In the case of B1, under setting [1], the denaturant m value turned out to be 3.7 kcal/mol/M, the “denaturant midpoint (higher = more stable)” value (“denaturant midpoint” for short) was determined as 0.85 M and the unfolding free energy worked out at 2.8 kcal/mol. The unfolding free energy (Homo sapiens, pH 7.5, 25 °C, GdnHCl, CD, Na2HPO4 5 mM, transition: 2, reversible: No) is 1.8 kcal/mol. Also, the Tm (Homo sapiens, pH 7.8, Thermal, CD, Sodium phosphate 5 mM, reversible: yes) was 51 °C.

B2: Annexin A5 wild type, P08758 (protein)
chain: MAQVLRGTVTDFPGFDERADAETLRKAMKGLGTDEESILTLLTSRSNAQRQEISAAFKTLFGRDLLDDLKSELTGKFEKLIVALMKPSRLYDAYELKHALKGAGTNEKVLTEIIASRTPEELRAIKQVYEEEYGSSLEDDVVGDTSGYYQRMLVVLLQANRDPDAGIDEAQVEQDAQALFQAGELKWGTDEEKFITIFGTRSVSHLRKVFDKYMTISGFQIEETIDRETSGNLEQLLLAVVKSIRSIPAYLAETLYYAMKGAGTDDHTLIRVMVSRSEIDLFNIRKEFRKNFATSLYSMIKGDTSGDYKKALLLLCGEDD
Turning to B2, under setting [2], the Tm came to 51.9 °C and the “unfolding enthalpy (van 't Hoff)” value worked out at 166 kcal/mol.

B3: Sphingosine kinase 1 wild type, Q9NYA1 (protein)
chain: MDPAGGPRGVLPRPCRVLVLLNPRGGKGKALQLFRSHVQPLLAEAEISFTLMLTERRNHARELVRSEELGRWDALVVMSGDGLMHEVVNGLMERPDWETAIQKPLCSLPAGSGNALAASLNHYAGYEQVTNEDLLTNCTLLLCRRLLSPMNLLSLHTASGLRLFSVLSLAWGFIADVDLESEKYRRLGEMRFTLGTFLRLAALRTYRGRLAYLPVGRVGSKTPASPVVVQQGPVDAHLVPLEEPVPSHWTVVPDEDFVLVLALLHSHLGSEMFAAPMGRCAAGVMHLFYVRAGVSRAMLLRLFLAMEKGRHMEYECPYLVYVPVVAFRLEPKDGKGVFAVDGELMVSEAVQGQVHPNYFWMVSGCVEPPPSWKPQQMPPPEEPL
For the protein B3, under setting [3], the denaturant m value came out at 0.42 kcal/mol/M, the “denaturant midpoint” value came to 2.86 M and the unfolding free energy is 1.32 kcal/mol. For the same protein, under setting [4], the denaturant m value was 0.6 kcal/mol/M, the “denaturant midpoint” value was 2.94 M and the unfolding free energy was determined as 1.75 kcal/mol.

B4: Interleukin-6 wild type, P08505 (protein)
chain: MKFLSARDFHPVAFLGLMLVTTTAFPTSQVRRGDFTEDTTPNRPVYTTSQVGGLITHVLWEIVEMRKELCNGNSDCMNNDDALAENNLKLPEIQRNDGCYQTGYNQEICLLKISSGLLEYHSYLEYMKNNLKDNKKDKARVLQRDTETLIHIFNQEVKDLHKIVLPTPISNALLTDKLESQKEWLRTKTIQFILKSLEEFLKVTLRSTRQT
On to B4, for which the denaturant m value is, setting by setting: under setting [5], 0.7 kcal/mol/M; under setting [6], 1.9 kcal/mol/M; under setting [7], 0.7 kcal/mol/M. In addition, the “denaturant midpoint” value under setting [5] came to 2.7 M, the “denaturant midpoint” value under setting [6] amounted to 3.6 M and the “denaturant midpoint” value under setting [7] was 4.8 M. The unfolding free energy was 1.8 kcal/mol under setting [5]; 6.9 kcal/mol under setting [6]; 6.8 kcal/mol (Mus musculus, pH 4, 25 °C, Urea, CD, Sodium acetate 10 mM); 6 kcal/mol (Mus musculus, pH 4, 25 °C, Urea, Fluorescence, sodium acetate 0.5 M); 3.4 kcal/mol under setting [7].

B5: Superoxide dismutase [Mn], mitochondrial wild type, P04179 (protein)
chain: MLSRAVCGTSRQLAPVLGYLGSRQKHSLPDLPYDYGALEPHINAQIMQLHHSKHHAAYVNNLNVTEEKYQEALAKGDVTAQIALQPALKFNGGGHINHSIFWTNLSPNGGGEPKGELLEAIKRDFGSFDKFKEKLTAASVGVQGSGWGWLGFNKERGHLQIAACPNQDPLQGTTGLIPLLGIDVWEHAYYLQYKNVRPDYLKAIWNVINWENVTERYMACKK
As for B5, under setting [8], the Tm amounted to 70 °C and the “unfolding enthalpy (calorimetric)” value was 142 kcal/mol.

B6: Cystatin-A wild type, P01040 (protein)
chain: MIPGGLSEAKPATPEIQEIVDKVKPQLEEKTNETYGKLEAVQYKTQVVAGTNYYIKVRAGDNKYMHLKVFKSLPGQNEDLVLTGYQVDKNKDDELTGF
As for B6, under setting [9], the midpoint of thermal melting (Tm) is 94.5 °C, the “heat capacity change of unfolding” value turned out to be 1.5 kcal/mol/K and the “unfolding enthalpy (calorimetric)” value stood at 122 kcal/mol.

B7: Cyclin-dependent kinase inhibitor 2A wild type, P42771 (protein)
chain: MEPAAGSSMEPSADWLATAAARGRVEEVRALLEAGALPNAPNSYGRRPIQVMMMGSARVAELLLLHGAEPNCADPATLTRPVHDAAREGFLDTLVVLHRAGARLDVRDAWGRLPVDLAEELGHRDVARYLRAAAGGTRGSNHARIDAAEGPSDIPD
Turning to B7, under setting [10], the “denaturant midpoint” value was 2.74 M and the unfolding free energy stood at 2.7 kcal/mol. The unfolding free energy (Homo sapiens, pH 7.5, 25 °C, Urea, CD, MOPS 10 mM, NaF 50 mM, reversible: Yes) turned out to be 2.3 kcal/mol. Under setting [11], the denaturant m value turned out to be 2 kcal/mol/M and the “denaturant midpoint” value was 1.9 M. Moreover, the melting temperature (Tm) (Homo sapiens, pH 7.5, Thermal, CD, HEPES 50 mM, reversible: no) was 41.5 °C.

B8: Ribonuclease MC wild type, P23540 (protein)
chain: FDSFWFVQQWPPAVCSFQKSGSCPGSGLRTFTIHGLWPQGSGTSLTNCPQGSPFDITKISHLQSQLNTLWPNVLRANNQQFWSHEWTKHGTCSESTFNQAAYFKLAVDMRNNYDIIGALRPHAAGPNGRTKSRQAIKGFLKAKFGKFPGLRCRTDPQTKVSYLVQVVACFAQDGSTLIDCTRDTCGANFIF
Take B8: under setting [12], the “denaturant midpoint” value turned out to be 2.57 M and the unfolding free energy came out at 13.2 kcal/mol. Further, the Tm (Momordica charantia, pH 7.5, Thermal, CD, Tris-HCl 10 mM, NaCl 200 mM) came out at 64.4 °C.
